The series has as its target MUC1 (mucine) (UniProt P15941 24-1097). The series can be described thus: electrochemical impedance spectroscopy (aptamer immobilized on electrode); 2 mM [Fe(CN)6]4-/3- redox probe; 1 mM Mg2+; observed (apparent) Kd, stated as about 0.1 U/mL; Binding buffer pH 7.4: 1 mM MgCl2, 140 mM NaCl, 2.7 mM KCl, 0.1 mM Na2HPO4, 1.8 mM KH2PO4; 45 min incubation; temperature not stated.

MUC1 (mucine), sequence (P15941 24-1097): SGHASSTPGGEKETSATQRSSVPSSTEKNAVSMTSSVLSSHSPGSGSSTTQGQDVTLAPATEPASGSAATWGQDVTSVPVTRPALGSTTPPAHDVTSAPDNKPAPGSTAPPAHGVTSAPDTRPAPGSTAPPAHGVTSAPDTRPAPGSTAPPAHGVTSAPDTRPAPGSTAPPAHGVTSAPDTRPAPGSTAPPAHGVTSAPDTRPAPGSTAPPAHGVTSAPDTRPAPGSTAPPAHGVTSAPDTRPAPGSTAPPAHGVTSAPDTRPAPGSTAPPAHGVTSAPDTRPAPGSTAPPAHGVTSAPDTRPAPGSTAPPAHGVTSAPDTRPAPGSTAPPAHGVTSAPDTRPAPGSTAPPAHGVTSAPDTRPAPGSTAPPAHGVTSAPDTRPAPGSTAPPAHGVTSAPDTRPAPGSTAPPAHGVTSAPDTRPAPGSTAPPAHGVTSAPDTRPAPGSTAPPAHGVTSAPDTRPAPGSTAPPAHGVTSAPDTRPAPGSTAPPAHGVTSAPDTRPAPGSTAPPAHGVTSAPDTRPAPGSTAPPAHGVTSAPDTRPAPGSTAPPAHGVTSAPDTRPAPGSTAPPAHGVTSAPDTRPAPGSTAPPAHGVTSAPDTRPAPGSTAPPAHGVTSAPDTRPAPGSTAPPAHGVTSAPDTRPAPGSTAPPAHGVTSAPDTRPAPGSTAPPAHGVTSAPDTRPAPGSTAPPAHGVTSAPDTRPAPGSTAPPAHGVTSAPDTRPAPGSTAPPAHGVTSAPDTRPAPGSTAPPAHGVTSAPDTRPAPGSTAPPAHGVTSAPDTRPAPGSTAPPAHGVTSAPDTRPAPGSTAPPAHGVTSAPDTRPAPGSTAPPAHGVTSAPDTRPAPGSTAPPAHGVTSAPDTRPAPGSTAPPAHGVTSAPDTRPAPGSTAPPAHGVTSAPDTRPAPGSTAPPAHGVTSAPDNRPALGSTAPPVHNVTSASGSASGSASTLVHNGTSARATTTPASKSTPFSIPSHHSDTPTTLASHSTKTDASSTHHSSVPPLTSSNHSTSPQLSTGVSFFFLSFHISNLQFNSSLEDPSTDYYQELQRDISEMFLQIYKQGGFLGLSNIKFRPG

Take GCAGTTGATCCTTTGGATACCCTGG (ssDNA, 3'-NH2) [MUC1 aptamer]: the Kd worked out at 630 nM.

Source of the values: paper PMC5087439, “One Step Assembly of Thin Films of Carbon Nanotubes on Screen Printed Interface for Electrochemical Aptasensing of Breast Cancer Biomarker”.
